Reference: patent US20080199467A1 (TRANSTECH PHARMA, published 2008)

Molecular target: T1, BSA (UniProt P02769 25-607)
T1 construct: Negative control coating; also called BSA coating alone; BSA+wash
Assay: ELISA, plate coated with BSA only, dilutions of fusion protein, anti-human IgG1 immunodetection complex, A405
Method: Known RAGE ligands were coated onto the surface of Maxisorb plates at a concentration of 5 micrograms per well. Plates were incubated at 4° C. overnight. Following ligand incubation, plates were aspirated and a blocking buffer of 1% BSA in 50 mM imidizole buffer (pH 7.2) was added to the plates for 1 hour at room temperature. The plates were then aspirated and/or washed with wash buffer (20 mM Imidizole, 150 mM NaCl, 0.05% Tween-20, 5 mM CaCl₂ and 5 mM MgCl₂, pH 7.2). […] The RAGE fusion protein was added at increasing dilutions of the initial sample. The RAGE fusion protein was allowed to incubate with the immobilized ligand at 37° C. for one hour after which the plate was washed and assayed for binding of the RAGE fusion protein. Binding was detected by the addition of an immunodetection complex containing a monoclonal mouse anti-human IgG1 diluted 1:11,000 to a final assay concentration (FAC) of 21 ng/100 μL, a biotinylated goat anti-mouse IgG diluted 1:500, to a FAC of […], and an avidin-linked alkaline phosphatase. […] Binding of the complex to the immobilized RAGE fusion protein was quantified by measuring conversion of PNPP to para-nitrophenol (PNP) which was measured spectrophotometrically at 405 nm.

T1 sequence (P02769 25-607 limits assumed): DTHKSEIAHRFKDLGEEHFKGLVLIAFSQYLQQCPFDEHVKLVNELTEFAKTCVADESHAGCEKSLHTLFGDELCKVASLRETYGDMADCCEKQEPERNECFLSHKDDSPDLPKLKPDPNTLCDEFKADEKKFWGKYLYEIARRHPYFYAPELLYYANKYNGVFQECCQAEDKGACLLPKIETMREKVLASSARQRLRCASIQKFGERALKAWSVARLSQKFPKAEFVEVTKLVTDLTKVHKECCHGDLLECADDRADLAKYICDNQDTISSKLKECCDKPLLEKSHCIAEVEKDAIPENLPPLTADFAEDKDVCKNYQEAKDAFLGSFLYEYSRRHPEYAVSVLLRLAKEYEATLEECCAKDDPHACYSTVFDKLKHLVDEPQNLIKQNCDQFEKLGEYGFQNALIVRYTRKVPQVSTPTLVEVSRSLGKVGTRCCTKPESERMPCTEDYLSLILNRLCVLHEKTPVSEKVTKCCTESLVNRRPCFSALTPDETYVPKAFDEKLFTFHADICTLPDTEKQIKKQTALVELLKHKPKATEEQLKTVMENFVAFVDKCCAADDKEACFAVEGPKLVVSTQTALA

B1: RAGE fusion protein TTP-4000 (Fc fusion)
chain: QNITARIGEPLVLKCKGAPKKPPQRLEWKLNTGRTEAWKVLSPQGGGPWDSVARVLPNGSLFLPAVGIQDEGIFRCQAMNRNGKETKSNYRVRVYQIPGKPEIVDSASELTAGVPNKVGTCVSEGSYPAGTLSWHLDGKPLVPNEKGVSVKEQTRRHPETGLFTLQSELMVTPARGGDPRPTFSCSFSPGLPRHRALRTAPIQPRVWEPVPLEEVQLVVEPEGGAVAPPSVFLFPPKPKDTLMISRTPEVTCVVVDVSHEDPEVKFNWYVDGVEVHNAKTKPREEQYNSTYRVVSVLTVLHQDWLNGKEYKCKVSNKALPAPIEKTISKAKGQPREPQVYTLPPSRDELTKNQVSLTCLVKGFYPSDIAVEWESNGQPENNYKTTPPVLDSDGSFFLYSKLTVDKSRWQQGNVFSCSVMHEALHNHYTQKSLSLSPGK
modifications: N-terminal residue glutamine (Q) or pyroglutamic acid (pE) or a mixture thereof; glycosylation sites at N2 and N288 (numbering of the processed protein); C-terminal residue may be cleaved off
notes: The end of the range (461) is derived from the coding length 1-1386 and from residues P459 and G460 near the terminal codon; also called TT4; four domain fusion protein
B1: no binding.

B2: RAGE fusion protein TTP-3000 (Fc fusion)
chain: QNITARIGEPLVLKCKGAPKKPPQRLEWKLNTGRTEAWKVLSPQGGGPWDSVARVLPNGSLFLPAVGIQDEGIFRCQAMNRNGKETKSNYRVRVYQIPGKPEIVDSASELTAGPSVFLFPPKPKDTLMISRTPEVTCVVVDVSHEDPEVKFNWYVDGVEVHNAKTKPREEQYNSTYRVVSVLTVLHQDWLNGKEYKCKVSNKALPAPIEKTISKAKGQPREPQVYTLPPSRDELTKNQVSLTCLVKGFYPSDIAVEWESNGQPENNYKTTPPVLDSDGSFFLYSKLTVDKSRWQQGNVFSCSVMHEALHNHYTQKSLSLSPGK
modifications: N-terminal glutamine may be cyclized to pyroglutamic acid (SEQ ID NO: 19)
notes: The range 24-346 is derived from this and from the coding length 1-1041; No characterization of the expressed TTP-3000 is reported; also called TT3; three domain fusion protein
B2: no binding.
